T1: extracellular domain of human DLL3 protein (aa27-466) having an N-terminal FLAG tag (AdipoGen, AG-40B-0151) (human, UniProt Q9NYJ7 27-466)
T1 construct: range 27-466; also called DLL3 ECD protein
T1 sequence (looked up): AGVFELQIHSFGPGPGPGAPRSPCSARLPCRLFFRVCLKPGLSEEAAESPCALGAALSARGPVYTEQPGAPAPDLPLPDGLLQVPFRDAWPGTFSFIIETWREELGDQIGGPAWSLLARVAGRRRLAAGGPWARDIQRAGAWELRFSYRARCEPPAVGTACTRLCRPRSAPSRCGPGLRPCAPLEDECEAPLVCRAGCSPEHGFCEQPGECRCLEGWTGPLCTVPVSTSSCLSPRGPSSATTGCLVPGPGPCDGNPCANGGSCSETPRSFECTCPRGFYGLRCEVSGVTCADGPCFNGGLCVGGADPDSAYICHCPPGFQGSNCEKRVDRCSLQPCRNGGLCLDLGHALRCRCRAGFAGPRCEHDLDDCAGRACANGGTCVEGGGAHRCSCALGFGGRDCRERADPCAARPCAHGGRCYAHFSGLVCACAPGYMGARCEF


Columns and labels:
[1] = target: T1, extracellular domain of human DLL3 …; assay: SPR (Biacore), captured antibody, human DLL3 as analyte
Excerpt: (§1) The camel and humanized sdAb sequences were fused with human IgG1 hinge and Fc, resulting the chimeric and humanized HCAb sequences. The DNAs encoding these HCAbs were synthesized and inserted into pTT5 vector. HCAb expression plasmids were used to transfect HEK293 cells. Crude HCAb proteins secreted to the medium were subjected to SPR affinity measurement as follows: briefly, capturing antibody anti-human Fc pAb (GE healthcare) was immobilized on a Biacore™ CM5 chip to approximately 6,000 RU using EDC-activated amine coupling chemistry. HCAb of interest was captured for 300 seconds onto the sensorchip surface. Human DLL3 (AdipoGen, AG-40B-0151) was flowed over the sensorchip surface at a series of increasing concentrations. Association and dissociation phases were monitored. Captured antibody and antigen were removed between cycles using 10 mM Glycine-HCl, pH 2.0 buffer in order to ensure a fresh binding surface for the antigen. The resulting sensorgrams were fit globally using a 1:1 binding model in order to calculate on- and off-rates (ka and kd, respectively), as well as affinities (KD).

[2] = target: T1, extracellular domain of human DLL3 …; assay: ELISA (protein), FACS (cells)
[3] = target: T1, extracellular domain of human DLL3 …; assay: SPR (Biacore), HCAb captured by anti-human Fc, human DLL3 as analyte, 1:1 fit
Excerpt: as §1

| Binder | Kd [1] | koff [1] | kon [1] | binding result [2] | Kd [3] | koff [3] | kon [3] |
| --- | --- | --- | --- | --- | --- | --- | --- |
| AS64052 HCAb (Fc fusion, not shown: a dimerising Fc or GST) QVHLMESGGGSVQAGGSLRLSCAASGYTYRSNFMGWFRQAPGKEREGIATIHSGVATTYYADSVKGRFTISQDNAKNTVYLQMNSLKPEDTAMYYCAAGGPPANADRWYPLRPPGYNYWGQGTQVTVSS | 4 nM | 0.00041 s⁻¹ | 100000 M⁻¹ s⁻¹ | – | – | – | – |
| AS64380VH7 HCAb (Fc fusion, not shown: a dimerising Fc or GST, humanized sdAb fused with human IgG1 hinge and Fc (humanized HCAb), crude HEK293 medium) EVQLVESGGGLVQPGGSLRLSCAASGNTYSSNYMGWFRQAPGKGREEVAVIYTRGGHTYYVDSVRGRFTISQDNAKNSVYLQMNSLRAEDTAMYYCAASSRHRLGLNNPRDYDYWGQGTLVTVSS | – | – | – | – | 45 nM | 0.0015 s⁻¹ | 32000 M⁻¹ s⁻¹ |
| AS64380VH4 HCAb (Fc fusion, not shown: a dimerising Fc or GST, humanized sdAb fused with human IgG1 hinge and Fc (humanized HCAb), crude HEK293 medium) EVQLVESGGGLVQPGGSLRLSCAASGNTYSSNYMGWFRQAPGKGLEEVAVIYTRGGHTYYVDSVRGRFTISRDNAKNSLYLQMNSLRAEDTAVYYCAASSRHRLGLNNPRDYDYWGQGTLVTVSS | – | – | – | – | 14 nM | 0.0044 s⁻¹ | 310000 M⁻¹ s⁻¹ |
| AS64380VH5 HCAb (Fc fusion, not shown: a dimerising Fc or GST, humanized sdAb fused with human IgG1 hinge and Fc (humanized HCAb), crude HEK293 medium) EVQLVESGGGLVQPGGSLRLSCAASGNTYSSNYMGWFRQAPGKGLEEVAVIYTRGGHTYYVDSVRGRFTISQDNAKNSLYLQMNSLRAEDTAVYYCAASSRHRLGLNNPRDYDYWGQGTLVTVSS | – | – | – | – | 26 nM | 0.0015 s⁻¹ | 59000 M⁻¹ s⁻¹ |
| AS64380 HCAb (Fc fusion, not shown: a dimerising Fc or GST, camel sdAb fused with human IgG1 hinge and Fc (chimeric HCAb), crude HEK293 medium) EVQLVESGGGSVQAGGSLTLSCEASGNTYSSNYMGWFRQAPGKEREEVAVIYTRGGHTYYVDSVRGRFTISQDNAKNTVYLQMNSLKPEDTAMYYCAASSRHRLGLNNPRDYDYWGQGTQVTVSS | – | – | – | – | 8.4 nM | 0.0056 s⁻¹ | 670000 M⁻¹ s⁻¹ |
| AS63997 HCAb (Fc fusion, not shown: a dimerising Fc or GST, camel sdAb fused with human IgG1 hinge and Fc (chimeric HCAb), crude HEK293 medium) QVRLVESGGGSVQAGGSLRLSCAGSFSGYGVSTMAWFRQAPGKEREGVAAITVGSGNTYYADSVKGRFTISRDNAKRTVFLQMNSLKPEDTAMYYCAVGYLSGGSWDVPGRYNYWGQGTQVTVSS | – | – | – | – | 16 nM | 0.0064 s⁻¹ | 390000 M⁻¹ s⁻¹ |
| AS63931 HCAb (Fc fusion, not shown: a dimerising Fc or GST) EVQLAESGGGSVQAGGSLRLSCAGSFSGYGVSTMAWFRQAPGKEREGVAAITVGSGNTYYADSVTGRFTISRDNAKRTVYLQMNSLKPEDTAMYYCAAGWLSGGSWHVPGRYNYWGQGTQVTVSS | 47 nM | 0.17 s⁻¹ | 3.6e+06 M⁻¹ s⁻¹ | – | – | – | – |
| AS63997VH5 HCAb (Fc fusion, not shown: a dimerising Fc or GST, humanized sdAb fused with human IgG1 hinge and Fc (humanized HCAb), crude HEK293 medium) QVQLVESGGGVVQPGGSLRLSCAASFSGYGVSTMAWFRQAPGKGLEGVAAITVGSGNTYYADSVKGRFTISRDNSKNTVYLQMNSLRAEDTAMYYCAVGYLSGGSWDVPGRYNYWGQGTLVTVSS | – | – | – | – | 37 nM | 0.021 s⁻¹ | 580000 M⁻¹ s⁻¹ |
| AS63997VH6 HCAb (Fc fusion, not shown: a dimerising Fc or GST, humanized sdAb fused with human IgG1 hinge and Fc (humanized HCAb), crude HEK293 medium) QVQLVESGGGVVQPGGSLRLSCAASFSGYGVSTMAWFRQAPGKGREGVAAITVGSGNTYYADSVKGRFTISRDNSKNTVYLQMNSLRAEDTAMYYCAVGYLSGGSWDVPGRYNYWGQGTLVTVSS | – | – | – | – | 33 nM | 0.06 s⁻¹ | 1.8e+06 M⁻¹ s⁻¹ |
| AS63997VH4 HCAb (Fc fusion, not shown: a dimerising Fc or GST, humanized sdAb fused with human IgG1 hinge and Fc (humanized HCAb), crude HEK293 medium) QVQLVESGGGVVQPGGSLRLSCAASFSGYGVSTMAWFRQAPGKGLEGVAAITVGSGNTYYADSVKGRFTISRDNSKNTLYLQMNSLRAEDTAVYYCAVGYLSGGSWDVPGRYNYWGQGTLVTVSS | – | – | – | – | 21 nM | 0.018 s⁻¹ | 840000 M⁻¹ s⁻¹ |
| AS64511VH6 HCAb (Fc fusion, not shown: a dimerising Fc or GST, humanized sdAb fused with human IgG1 hinge and Fc (humanized HCAb), crude HEK293 medium) EVQLVESGGGLVQPGGSLRLSCAASRATYSTNYISWFRQAPGKGREAVATITTGDGETAYADSVKGRFTISRDNAKNSVYLQMNSLRAEDTAMYYCAANLRIGGDWFDGRDFRAWGQGTLVTVSS | – | – | – | – | 3.4 nM | 0.00048 s⁻¹ | 140000 M⁻¹ s⁻¹ |
| AS64047 HCAb (Fc fusion, not shown: a dimerising Fc or GST) QVHLVESGGGSVQAGGSLRLSCAASQYVYRWDLMGWFRQAPGKEREAVAAVYTGDGITYYADSVKGRFSISQDNAKNTVYLQMNSLKPEDTGMYFCAAGFVSGGRWNQSYRYKYWGQGTQVTVSS | 6.7 nM | 0.00096 s⁻¹ | 140000 M⁻¹ s⁻¹ | – | – | – | – |

More lines, now with the values ahead:

| Kd [1] | koff [1] | kon [1] | binding result [2] | Kd [3] | koff [3] | kon [3] | Binder |
| --- | --- | --- | --- | --- | --- | --- | --- |
| – | – | – | binds | – | – | – | AS64006 (VHH, camel sdAb; crude E. coli supernatant) VHH: QVHLVESGGGSVQAGGSLRLSCEVSGYTGDTTYIGWFRQAPGKEREGVALIYTSGTSEYYADSVKGRFIISRDNAKNTVYLQMNSLKPEDTAMYYCGARSRTMMYWGQGTQVTVSS |
| – | – | – | binds | – | – | – | AS63993 (VHH, camel sdAb; crude E. coli supernatant) VHH: QVKLVESGGGLVQAGGSLRLSCTVSGFTFDDLVMAWFRQAPGKERQLVSLVATAGNSVYADSVKGRFTLSRDNAHSTAYLQMNGLKPEDTAMYYCAARTDSEHAFKFWGQGTQVTVSS |
| 20 nM | 0.0038 s⁻¹ | 190000 M⁻¹ s⁻¹ | – | – | – | – | AS64617 HCAb (Fc fusion, not shown: a dimerising Fc or GST) QVQLVESGGGSVQAGGSLRLSCAASGYTDRCSMAWYRQAPGKERELVSRISTSGFTNYAASVKGRFTISQDNAKNTVYLQMNSLNPGDTGMYYCAIIVGRTCSLNYWGNGILVTVSS |
| – | – | – | binds | – | – | – | AS63965 (VHH, camel sdAb; crude E. coli supernatant) VHH: QVQLVESGGGSVQAGGSLRLSCVASGYSSGSCRMGWYRQAPGKERELVSKVISDGTTVYADSVKGRFTLSQGNAKNTVYLQMSSLLPEDTAMYYCNAWCREYPGGILNNGWGQGTQVTVSS |
| – | – | – | binds | – | – | – | AS64071 (VHH, camel sdAb; crude E. coli supernatant) VHH: QVHLMESGGGSVQAGGSLRLSCVASGNTYRLNSMGWFRQAPGKEREGVAFIVMIRGTTYYGASVKGRFTISQDNAQTTVYLQMSSLKPEDTAMYYCAASTKDQFYVFNPIGYDSWGQGTQVTVSS |
| – | – | – | – | 17 nM | 0.0015 s⁻¹ | 88000 M⁻¹ s⁻¹ | AS64380VH6 HCAb (Fc fusion, not shown: a dimerising Fc or GST, humanized sdAb fused with human IgG1 hinge and Fc (humanized HCAb), crude HEK293 medium) EVQLVESGGGLVQPGGSLRLSCAASGNTYSSNYMGWFRQAPGKGLEEVAVIYTRGGHTYYVDSVRGRFTISQDNAKNSVYLQMNSLRAEDTAMYYCAASSRHRLGLNNPRDYDYWGQGTLVTVSS |
| – | – | – | binds | – | – | – | AS64060 (VHH, camel sdAb; crude E. coli supernatant) VHH: QVKLVESGGGSVQAGGSLRLSCAASGSTYCTYRMSWFRQAPGKEREFVAVIDSGGSTSYADSVKGRFTISRDNAKNTVYLQMNSLKPEDTAMYYCKTDPTIGCPQTYRYNYWGQGTQVTVSS |
| – | – | – | binds | – | – | – | AS63987 (VHH, camel sdAb; crude E. coli supernatant) VHH: QVRLVESGGGSVQAGGSLRLSCEATGYRNCMAWFRQAPGKEREGVAVIYTPSGITDYASSVKGRFTISQNNARNTQYLQMNSLKPEDTAMYYCAADRPFVCNIANMRRSSNWGRGTQVTVSS |
| – | – | – | – | 2.9 nM | 0.00047 s⁻¹ | 160000 M⁻¹ s⁻¹ | AS64511VH5 HCAb (Fc fusion, not shown: a dimerising Fc or GST, humanized sdAb fused with human IgG1 hinge and Fc (humanized HCAb), crude HEK293 medium) EVQLVESGGGLVQPGGSLRLSCAASRATYSTNYISWFRQAPGKGLEAVATITTGDGETAYADSVKGRFTISRDNAKNSVYLQMNSLRAEDTAMYYCAANLRIGGDWFDGRDFRAWGQGTLVTVSS |
| – | – | – | – | 3 nM | 0.0004 s⁻¹ | 130000 M⁻¹ s⁻¹ | AS64511 HCAb (Fc fusion, not shown: a dimerising Fc or GST, camel sdAb fused with human IgG1 hinge and Fc (chimeric HCAb), crude HEK293 medium) QVQLVESGGGSVQAGGSLRLSCAASRATYSTNYISWFRQAPGKEREAVATITTGDGETAYADSVKGRFTISRDNAKNTVYLQMNSLKPEDTAMYYCAANLRIGGDWFDGRDFRAWGQGTQVTVSS |
| – | – | – | – | 6 nM | 0.00094 s⁻¹ | 160000 M⁻¹ s⁻¹ | AS64511VH4 HCAb (Fc fusion, not shown: a dimerising Fc or GST, humanized sdAb fused with human IgG1 hinge and Fc (humanized HCAb), crude HEK293 medium) EVQLVESGGGLVQPGGSLRLSCAASRATYSTNYISWFRQAPGKGLEAVATITTGDGETAYADSVKGRFTISRDNAKNSLYLQMNSLRAEDTAVYYCAANLRIGGDWFDGRDFRAWGQGTLVTVSS |
| 0.96 nM | 9e-05 s⁻¹ | 94000 M⁻¹ s⁻¹ | – | – | – | – | AS69443 HCAb (Fc fusion, not shown: a dimerising Fc or GST) EVQLAESGGGSVQAGGSLRLSCSASGFTFDDSDMAWYRQAPGDGCDLVSTISSDGSTYYADSVKGRFTISQDNAKNTVYLQMHSLKPEDTAVYYCAADFLTGFYYSDSPHPAPCSASDFGYWGQGTQVTVSS |
